According to patent US20240210401A1, “METHOD OF USING PACAP AND VIP PEPTIDES FOR DETECTING SHED OR CIRCULATING TUMOR CELLS IN BIOLOGICAL FLUIDS” (Thomas Jefferson University, priority 2013, published 2024):

Molecular target: T1, VPAC1 receptors expressed on the cell membrane of prostate cancer cells (Homo sapiens, UniProt P32241)
T1 construct: VPAC1 receptors expressed on the cell membrane of prostate cancer cells; endogenous in cells; host or cells: prostate cancer cells cytospun from patients' urine
T1 sequence (P32241 31-457): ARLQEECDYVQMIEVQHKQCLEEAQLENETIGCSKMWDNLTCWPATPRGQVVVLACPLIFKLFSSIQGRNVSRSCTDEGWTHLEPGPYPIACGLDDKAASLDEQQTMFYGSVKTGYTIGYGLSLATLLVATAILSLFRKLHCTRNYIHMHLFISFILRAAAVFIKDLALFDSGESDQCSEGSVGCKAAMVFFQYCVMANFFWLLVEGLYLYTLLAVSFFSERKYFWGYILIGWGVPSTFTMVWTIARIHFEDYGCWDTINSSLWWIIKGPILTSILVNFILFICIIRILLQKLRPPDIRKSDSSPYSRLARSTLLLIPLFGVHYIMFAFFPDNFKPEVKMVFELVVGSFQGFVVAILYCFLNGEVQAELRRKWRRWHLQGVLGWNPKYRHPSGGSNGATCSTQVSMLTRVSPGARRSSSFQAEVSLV
Test: Confocal imaging of cells from urine samples of prostate cancer patients
Type: cell-based
Source text: The PACAP peptide, […]γAba-Lys (R) (SEQ ID NO: 7), was synthesized on a Wang resin using an ABI 341A peptide synthesizer (Applied Biosystems, Foster City, CA). The 27-amino acid long PACAP sequence was then assembled by standard Fmoc chemistry and coupled with a free sulfhydryl group attached to the C-terminus. This C-terminal sulfhydryl group was then reacted with a maleimide functionalized NIR dye to yield TP4303.
Urine samples from two patients, one with early phase prostate cancer and the other with advanced prostate cancer, were cytospinned, and cells were collected on glass slides. The cells were incubated with TP4303, washed with phosphate-buffered saline (PBS) and the slide was dried. The cells were treated with DAPI (4′,6-diamidino-2-phenylindole, a fluorescent stain that binds strongly to A-T rich regions in cellular DNA), a cover slip was placed on the sample and confocal microscopic analysis was performed (excitation, […]; emission, […]).

Substance: His-Ser-Asp-Gly-Ile-Phe-Thr-Asp-Ser-Tyr-Ser-Arg-Tyr-Arg-Lys-Gln-Met-Ala-Val-Lys-Lys-Tyr-Leu-Ala-Ala-Val-Leu-γAba-Lys (R) (SEQ ID NO: 7) (HSDGIFTDSYSRYRKQMAVKKYLAAVLEK; maleimide NIR dye conjugated via C-terminal sulfhydryl; MOD_RES 28 4Abu) [TP4303, PACAP peptide with C-terminal sulfhydryl group reacted with a maleimide functionalized NIR dye]
- interaction with epithelial cells (epithelial cells in the urine samples, identified by DAPI, not expressing VPAC1): did not interact
- interaction with sperm (sperm in the urine sample, identified by DAPI, not expressing VPAC1): did not interact
- binding to VPAC1 receptors on prostate cancer cells (urine of two patients (early phase and advanced prostate cancer), confocal microscopy): bound
